One experiment concerns the target T1, GST-Obsc_(6231–6260) (rat).
T1 chain: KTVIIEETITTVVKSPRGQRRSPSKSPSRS
Description: SPR. (SPR reads the build-up and loss of mass on a sensor chip optically.)

The target in a further experiment is GST-Obsc_(6316–6345) (rat). Description: SPR.

B1: MBP-sAnk1_(29–155) (domain or fragment)
chain: VKGSLCFVLKHIHQELDKELGESEGLSDDEETISTRVVRRRVFLKGDELQNIPGEQVTEEQFTDEQGNIVTKKIIRKVVRQVDSSGAIDTQQHEEVELRGSGLQPDLIEGRKGAQIVKRASLKRGKQ
In general, Kd refers to the concentration at which binding is half-saturated. A higher Kd goes with lower affinity. The term koff denotes the rate constant with which the complex falls apart. Read a high koff as fast dissociation. By kon is commonly meant the rate constant with which the complex forms. As for B1, in the experiment with GST-Obsc_(6231–6260), the Kd was 384 ± 53 nM. In the experiment with GST-Obsc_(6316–6345), this molecule came in with a dissociation constant (Kd) of 133 nM, a dissociation rate constant (koff) of 0.000792 s⁻¹ and a kon of 6290 M⁻¹ s⁻¹.

The values are drawn from PMC3000613 (Biochemistry, 2010).
